We go through 14 sequences from a protein production outcome set (Wang et al. 2014).

A short description of this data set: label from the status in PepcDB records.

Consider “MRAVLTWRDKAEHCINDIAFKPDGTQLILAAGSRLLVYDTSDGTLLQPLKGHKDTVYCVAYAKDGLWSPEQKSVSKHKSSSKIICCSWTNDGQYLALGMFNGIISIRNKNGEEKVKIERPGGSLSPIWSICWNPSREERNDILAVADWGQKVSFYQLSGKQIGKDRALNFDPCCISYFTKGEYILLGGSDKQVSLFTKDGVRLGTVGEQNSWVWTCQAKPDSNYVVVGCQDGTISFYQLIFSTVHGLYKDRYAYRDSMTDVIVQHLITEQKVRIKCKELVKKIAIYRNRLAIQLPEKILIYELYSEDLSDMHYRVKEKIIKKFECNLLVVCANHIILCQEKRLQCLSFSGVKEREWQMESLIRYIKVIGGPPGREGLLVGLKNGQILKIFVDNLFAIVLLKQATAVRCLDMSASRKKLAVVDENDTCLVYDIDTKELLFQEPNANSVAWNTQCEDMLCFSGGGYLNIKASTFPVHRQKLQGFVVGYNGSKIFCLHVFSISAVEVPQSAPMYQYLDRKLFKEAYQIACLGVTDTDWRELAMEALEGLDFETAKKAFIRVQDLRYLELISSIEERKKRGETNNDLFLADVFSYQGKFHEAAKLYKRSGHENLALEMYTDLCMFEYAKDFLGSGDPKETKMLITKQADWARNIKEPKAAVEMYISAGEHVKAIEICGDHGWVDMLIDIARKLDKAEREPLLLCATYLKKLDSPGYAAETYLKMGDLKSLVQLHVETQRWDEAFALGEKHPEFKDDIYMPYAQWLAENDRFEEAQKAFHKAGRQREAVQVLEQLTNNAVAESRFNDAAYYYWMLSMQCLDIAQADPAQKDTMLGKFYHFQRLAELYHGYHAIHRHTEDPFSVHRPETLFNISRFLLHSLPKDTPSGISKVKILFTLAKQSKALGAYRLARHAYDKLRGLYIPARFQKSIELGTLTIRAKPFHDSEELVPLCYRCSTNNPLLNNLGNVCINCRQPFIFSASSYDVLHLVEFYLEEGITDEEAISLIDLEVLRPKRDDRQLEIANNSSQILRLVETKDSIGDEDPFTAKLSFEQGGSEFVPVVVSRLVLRSMSRRDVLIKRWPPPLRWQYFRSLLPDASITMCPSCFQMFHSEDYELLVLQHGCCPYCRRCKDDPGP”, for which the protein production result is on record as “failed”.

Take “MRCLRHARRQSQGVRGGRGMARADRGDGDGDAEAEDGRHSTASDARLTQLLRTDTATAYPALRELRTRHRPAVLGYARLCTVDDAAARRLTAQAFALAARDTARGSDPRGPWRHQLLLLAGRVAASWAADERAARLDPDLLAHLGAAGSRAQVPPLLAAFQSLPSRVQGVVWYAVVEGEPDDRTADFVGLTREDVTYGTEPAFQSLRQSCLTTRLAASDDPRCQDFRRLIEESVRPDNPRYSADLHAHMVHCVYCATAYDELSALRDDPRTALAAGLLAWGGAAYVTGGAVTRRAVAGGPGPSGPGPGDPGPGPAPGWWPSRRFVLASTALGVALIPFLAYLLVSGGPEPERAANAVATPSRPPAVTVTATVSATPSPSPSHTAGKSPKPSRSPSASKTTRPPSPKPSPKPPAPHPPNGSFAQVVNADSGLCLDIRDGVMDLGTDVVTAPCTSSRTQRWRVDTARGVLQSSEDPDFCLDSRGSTDRGVGIWECGAVYGRNGRNLRFTVDAQGVIRPAVAPDHAVTPYGDALFLVPAEGRAAQRWRAGAA”: the protein production entry is recorded as “failed”.

With “MRCRFPYDGKQRIILEEGYPVYECNKFCGCSRTCQNRVLQNGIRAKLEVFRTESKGWGLRACEHILRGTFVCEYIGEVLDQQEANKRRNQYGNGDCSYILDIDANINDIGRLMEEELDYAIDATTHGNISRFINHSCSPNLVNHQVIVESMESPLAHIGLYASMDIAAGEEITRDYGRRPVPSEQENEHPCHCKATNCRGLLS”, the protein production entry is “failed”.

In the case of “MRDMEFIEWYPRGYGVAFKVKRKILEEQSEYQKIEVYETEGFGKLLAIDGTVQLVTEGEKSYHEPLVHPAMLAHPNPRRVLIIGGGDGGAIREVLKHEEVEEVIMVEIDKKVIEISAKYIGIDGGILEKMLSDKHEKGKLIIGDGVKFIEENSGFDVIIVDSTDPVGPAEMLFSEEFYKNAYRALNDPGIYVTQAGSVYLFTDEFLTAYRKMRKVFDKVYYYSFPVIGYASPWAFLVGVKGSIDFMKVDAEKGKKLGLEYYDPDKHETLFQMPRYIVQML”, the protein production entry is given as “not failed”.

With “MRDPVSRLPNREQFQSDLYDLADENPGERRVLVLVDAVDMTVAHELTLAMGLAPFETIVRFLAQQLLAYLGRHVRVYHVSVKRFGFLLPAAPGIERFLESLVRRLRRQPPGLELPMIPGVCAGTVEFSTDRDAVPDVLRKAMFALELATLNRSTWAPYDVVRLEHHHHHH”, the protein production result is reported as “failed”.

With “MRDTGTSESNRSGDVVLGDDWVAPHSTVSKELRVKRARRSLFSLRGSPLTRKIITFNLIALIILVAGILYLNDARNGLVVQRAGALVGETQLVADVFEAQITGSAPVNLATGDGVDVDATLEDLSLRRGVEVFVFDTARNMVGQTKGTHVNPRLQALFEDKTGSTIITDALSGLWRAVSSIFANAPKSSAPALEQQIASLLPEALAGETRVETVLNTAGGTVIAAATPILQAGTPIGAVAMASPAGEIDALARRDRERVLQMFVVALLVSVGLSLVLASTIANPLADLAEAAELGRDRNSRRMNPGRIRIPDLSARPDEIGRLSRALRGMVSALYNRIEGNEQFAADVAHEIKNPLASLQSAVGTLRMVRREDQRDKLLSVIEHDVRRLDRLVSDISNASRLDAELVKEEEQSFNLLTMLDNLNQYLGEDARSKGIDYITDMPPDPIMIQGLEARLAQVFVNLITNAISFCEDGDAIRVWTRRRANRVLIVVEDTGPGIPDEALAKIFKRFYSQRPEEHFGNNSGLGLAISKQIVEAHGGVIWAENIRPTEADVTSDPLGARFVVGLPI”, the protein production entry is “not failed”.

With “MRDVIIALLPATIFGIINFEINAMILILTCVVSCVLFEWLYQKMMNRKVTIYDLSAVVTGLLLALNLSPDVPIWMAILGSAFAIIIVKQLFGGLGFNFMNPALGARCFLLISFAGRMTSFSYDGVTTATPLAVLKNTGDLANVNVLHMFLGNIPGTIGETSVVCILVGAAYLLIRRVIKPVIPLTYIGTFAVLIMIYALASGRGFDLTFLAAHLCGGGLMLGAFFMATDYVTSPITPAGKVVFGVILGILTFCFRIYGGSAEGVSYAIIFSNLLVPLIERWTQPKSFGEGAELAAQGDTSGTKSKMDTRSIIIATIAIMIITVIAGFALAYVYKVTKDPIAVTEQKAKEEAYKAVFGDADSFDSYSDFDADAAAKVLKDAGYNADIDEVVEAKNSDGSVLGYVVTVTSHEAYSGDLQLAMGVRTDGTTNGISFLSLSETAGLGMEADTDSFKSQFAGKKVDKFKYTKSGATVDEEIDALSGATITTNAVTNAVDAGLEYVKSINGGAADPSNALDETDASNGGDK”, the protein production entry is listed as “failed”.

Turning to “MREEELNTEKVVAAIANPVENEVRKVWEDVVEKIEQRVAVIEQASHKLLQNKVSEEILSKAKVEAHKLAGSLGMFGSDEGSQIAQEIESLLDNGKKLKASGGKHLGQVVEALHQELENLKSGLEHHHHHH”, the protein production entry is listed as “not failed”.

For “MREHFVNEFMAVLSNKLTEDALSIVYQSLTLFVSNYEISERNTEVVPYTGYLPECYETYFVTRKIEGMSMKSLELYNLVLKDFFFKLNKEICKISTNDIRVYLYKNQQERNLSNSTLDTKRTIIHAFFEWAANEGYIGSNPCRNIKPIKYERPKRKPLTGIELEKVRNACDNLKDKALLELFYSTGCRVTEMERLDISDIDFQTKEVLLFGKGDKHRISYLNAKAEIAIRNYLDSRNDNEEALFVSDRKPYGRLKKPAIEKRIRVLGEKSGIGRRLYPHLIRHTTATDGLDRGMPVEEVQQILGHVNIATTMIYAEVSRANVKNNHRKCIV”, the protein production entry is on record as “failed”.

For the sequence “MRERLFANVRLRLSGGRQAAYISRAMSAAPDLRDPPPAHVRRLDPILVDRIAAGEVVERPASAVKELVENAIDAGARSIEVAIEGGGRRLIRVVDDGIGMGPDDLALAVERHATSKLPDGDLTRIGSLGFRGEALPSIGAVSRLTITSRTADGEGVSLTLDSGVKGPVRPAPASRGTRIEVTELFAATPARLKFLKTDRAETAAVSEILRRLAVAQPRIRFTLRTESGSPTVFPAESEPGPAALLRRLGAVLGPDFPGNAVPVDMAREGFALAGHVGLPTFHRGAASHIHFVVNGRPVRDRLLLGAVRGAYADTMSSDRHPVLALHLTCDPALVDVNVHPAKTELRFREPGLVRALIVSAIHEALRRAGARSSSTGTQAVLDALRAGAGMGSAPPMAAGVGRFAVHSGASTASALNPRPASRLFSGPSVAAPAGYRPAPRPAFTEDHPGFAETPQALFSADLAPPGADLRPEPEAVSEAETHPEAHPLGAARAQIHETYIVAQTRDGIVLVDQHAAHERLVYERLKSERAGGGVLAQGLLIPDVVEMAPEEADRLVEAAPELERLGLTLEAFGPGAVLVRSVPSALAGGSVKGLVLDVLDALAASGVEEGGPAGAGDPDPVSRRLDAILSRMSCHGSIRAGRRLKPEEMNALLREMEATPLSGSCNHGRPTFVSLGLADIERLFGRR”, the protein production entry is “failed”.

In the case of “MRERRFTSDAAHELRSPLTALKVQTEVAQLSDDDPQARKKALLQLHSGIDRATRLVDQLLTLSRLDSLDNLQDVAEIPLEDLLQSSVMDIYHTAQQAKIDVRLTLNAHSIKRTGQPLLLSLLVRNLLDNAVRYSPQGSVVDVTLNADNFIVRDNGPGVTPEALARIGERFYRPPGQTATGSGLGLSIVQRIAKLHGMNVEFGNAEQGGFEAKVSW”, the protein production result is recorded as “not failed”.

In the case of “MRFFVFLKTLQSRSFCIFQQSFLLFFTSFFIIFVSNLCFISRGYGQNPPSLPAEPPSPQLLLPLDDLIPNDPSSAPAEPNSDSAATILEDFDAVHQSYAQRTEQRKEAEILRLLKELKFCADVEKARKISQQLQRLWSQSGSETIDLLMLWAENAINADNYGLALDYIDNALALLPTYAEGWIRRAWVHIQLSDFKLAMLDLNHALKLEPRNYIAFFELGITMEATERPKLALKAYETALEYYPQMQKVQKRIEELLDKQSPQAL”, the protein production result is reported as “failed”.

As to “MRFGRFLAVVACATLLAACASTPTPPAGELSGTPTALESGPKKDPLNTLNSTGRAGTLSRSTVVNVDQSSVDWLRGPSSDIWDRIRKGFAMPDLEGTLVDDRTQWYAARPDYMERMVGRSSRYLYHIVEELERRKMPTELALLPFVESAFNPQAESTAKAAGMWQFIPSTGKTYNLKQNMFRDERRDVLASTDAALDYLQRLYDMFGDWQLALAAYNWGEGAVSRAIARNQARGLPTDYASLTMPTETRYYVPKLQAVKNIIANPAAYGVRLPEIPDHPYFVTVTTSRDIDVALAAKLANMPLDEFKALNPSFNRPVILGAANPQILLPFENAERFQYNLNTYRGGLSSWTAVTVDSRERVESLAARLNVDVDTLREINRIPKGMRLKAGSTVMIPRTERHDQDISASLVDTAMLAVEPDVPDAKRVVVRAGRKDTVSTVARRYGVSVKQVQSWNKLSGSKLVAGQSLVLMLRPNSAAAMRAERAGDEDDTPAKAAPHGKSGGKTQAVAKSEKYDKVEKSSRSAKAEPRKRVVVEASPHSSTSKSSGKSATRESKSSPTPATKSKSSRAQ”, the protein production entry is listed as “failed”.

Take “MRFKISLTTRLSLIFSAVMLTVWWLSSFILISTLNDYFDNQDRDFLTGKLQLTEEFLKTETFRNKTDIKSLSEKINDAMVGHNGLFISIKNMENEKIVELYAKNSVVPAVLLNKSGDILDYMIQTEENNTVYRSISRRVAVTPEQGKSKHVIITVATDTGYHTLLMDKLSTWLFWFNIGLVFISVFLGWLTTRIGLKPLREMTSLASSMTVHSLDQRLNPDLAPPEISETMQEFNNMFDRLEGAFRKLSDFSSDIAHELRTPVSNLMMQTQFALAKERDVSHYREILFANLEELKRLSRMTSDMLFLARSEHGLLRLDKHDVDLAAELNELRELFEPLADETGKTITVEGEGVVAGDSDMLRRAFSNLLSNAIKYSPDNTCTAIHLERDSDCVNVMITNTMSGQVPANLERLFDRFYRADSSRFYNTEGAGLGLSITRSIIHAHGGELSAEQQGREIVFKVRLLMD”: the protein production result was “failed”.
